The values below come from patent US12605469B2, “Tumor specific antibody conjugates and uses therefor” (The University of North Carolina at Charlotte, priority 2019, dated 2026).

The target in one data set is T1, KCM lysate (Homo sapiens, UniProt P15941).
T1 construct: expressed in transfected cells; host or cells: KCM, a primary mouse pancreatic adenocarcinoma line from P48-Cre x LSL-Kras G12D x human MUC1.Tg mice; whole-cell lysate at 10 ug/mL
Kind of data set: sandwich ELISA of humanized TAB004 antibodies on KCM lysate. The format is binding, mouse. The conditions noted are these: compared with chimeric parental antibody. Here is the method: Antigen binding (KCM lysate) to the 9 humanized antibody combinations and the chimeric parental antibody were evaluated by sandwich ELISA. For this, ELISA plates were coated with hybridoma antibody (1 μg/mL) overnight at 4° C. in the dark and then blocked with 2% BSA for 2 hours at room temperature to reduce non-specific binding. KCM lysate (10 μg/mL) was then added and incubated for 2 hours at room temperature. Antibodies were diluted in 5-fold increments for a total of seven data points and were added to the ELISA wells for 2 hours at room temperature. The plate was washed with PBS three times, and then incubated with HRP conjugated goat anti-human IgG antibody for 2 hours. The plate was washed three times with PBS. TMB, the HRP substrate, was added to each well for color development for 5 minutes at room temperature. Equal amount of 1N HC1 stop solution was added to each well to terminate the reaction.
In general terms: In an ELISA, binding on a coated surface is turned into a signal by an enzyme label.

A further data set deals with KCM pancreatic cell line. Kind of data set: binding to KCM pancreatic cell line. The format is cell-based, mouse. The text has this:
FIG. 3 is a schematic (upper left panel) showing an approach for creating a triple transgenic mouse line that expresses the Cre recombinase throughout the pancreas, a mutated K-ras oncogene polypeptide, and a human MUC1 polypeptide. This mouse develops pancreatic adenocarcinoma, cells of which were used to generate the primary tumor cell line KCM (lower panel). The KCM cell line was used to test the binding of an exemplary antibody of the presently disclosed subject matter (denoted in the Figure as “TAB” and in the instant disclosure as “TAB-004”) either alone or conjugated to CpG oligodeoxynucleotides (CpG ODN).
(§1) The TAB-004 antibody alone or conjugated to CpG ODN bound to a tumor cell line (referred to herein as the “KCM” cell line; see FIG. 3) generated from the triple transgenic PDA.MUC1.Tg mice.

Another data set concerns KCM tumor cells. Kind of data set: NK cell specific lysis of tumor cells. The format is cell-based, mouse. As to conditions: various E:T ratios.
From the text: FIGS. 4A and 4B are graphs showing that an exemplary antibody of the presently disclosed subject matter (TAB-004) enhanced the cytotoxicity of Natural Killer (NK) cells to kill target tumor cells.
as §1

The next data set deals with KCM tumor. Kind of data set: in vivo anti-tumor activity against established KCM tumor. More on the design: species or system mouse. Here is the method:
FIG. 5A is a line graph showing the measured tumor volumes (in mm measured by digital calipers) in mice treated with phosphate-buffered saline (PBS) alone (negative control; filled squares), CpG ODN alone (X's), the unconjugated TAB-004 antibody (open circles), or the TAB-004-CpG ODN conjugate (filled circles). FIG. 5B is a bar graph showing the changes in tumor volumes in mice at 19 and 27 days after the final treatment was administered. […] PBS alone (negative control; white bars); CpG ODN alone (hatched bars); unconjugated TAB-004 antibody (black bars); TAB-004-CpG ODN conjugate (cross-hatched bars). […] The treatment groups and the schedule and dose were as illustrated in FIGS. 5A and 5B. Briefly, 3×10^6 KCM tumor cells were administered subcutaneously into the flank region of mice (n=10 mice) at day 0. At days 4, 10, and 16, 50 μg of a TAB-004-CpG ODN conjugate were administered intratumorally (without adjuvant) to each mouse. The same amounts of antibody were administered to an antibody alone group (unconjugated TAB-004) for comparison. Mice were sacrificed at day 20 and tumors recovered.

Data set [1] can be described thus: physical properties of MSN materials (DLS, zeta-potential, TGA, TEM). The format is physicochemical. The text has this: The MSN conjugates were characterized by dynamic light scattering (DLS), thermogravimetric analysis (TGA), and transmission electron microscopy (TEM). […] DLS results indicated slight aggregation. The surface charges were as expected during the different synthesis steps, with the final TAB-004-MSN neutral surface charge indicating successful functionalization of MSN. The PEG linker was quantified by TGA to be about 6-7% by weight.

T1 sequence (P15941 24-1255): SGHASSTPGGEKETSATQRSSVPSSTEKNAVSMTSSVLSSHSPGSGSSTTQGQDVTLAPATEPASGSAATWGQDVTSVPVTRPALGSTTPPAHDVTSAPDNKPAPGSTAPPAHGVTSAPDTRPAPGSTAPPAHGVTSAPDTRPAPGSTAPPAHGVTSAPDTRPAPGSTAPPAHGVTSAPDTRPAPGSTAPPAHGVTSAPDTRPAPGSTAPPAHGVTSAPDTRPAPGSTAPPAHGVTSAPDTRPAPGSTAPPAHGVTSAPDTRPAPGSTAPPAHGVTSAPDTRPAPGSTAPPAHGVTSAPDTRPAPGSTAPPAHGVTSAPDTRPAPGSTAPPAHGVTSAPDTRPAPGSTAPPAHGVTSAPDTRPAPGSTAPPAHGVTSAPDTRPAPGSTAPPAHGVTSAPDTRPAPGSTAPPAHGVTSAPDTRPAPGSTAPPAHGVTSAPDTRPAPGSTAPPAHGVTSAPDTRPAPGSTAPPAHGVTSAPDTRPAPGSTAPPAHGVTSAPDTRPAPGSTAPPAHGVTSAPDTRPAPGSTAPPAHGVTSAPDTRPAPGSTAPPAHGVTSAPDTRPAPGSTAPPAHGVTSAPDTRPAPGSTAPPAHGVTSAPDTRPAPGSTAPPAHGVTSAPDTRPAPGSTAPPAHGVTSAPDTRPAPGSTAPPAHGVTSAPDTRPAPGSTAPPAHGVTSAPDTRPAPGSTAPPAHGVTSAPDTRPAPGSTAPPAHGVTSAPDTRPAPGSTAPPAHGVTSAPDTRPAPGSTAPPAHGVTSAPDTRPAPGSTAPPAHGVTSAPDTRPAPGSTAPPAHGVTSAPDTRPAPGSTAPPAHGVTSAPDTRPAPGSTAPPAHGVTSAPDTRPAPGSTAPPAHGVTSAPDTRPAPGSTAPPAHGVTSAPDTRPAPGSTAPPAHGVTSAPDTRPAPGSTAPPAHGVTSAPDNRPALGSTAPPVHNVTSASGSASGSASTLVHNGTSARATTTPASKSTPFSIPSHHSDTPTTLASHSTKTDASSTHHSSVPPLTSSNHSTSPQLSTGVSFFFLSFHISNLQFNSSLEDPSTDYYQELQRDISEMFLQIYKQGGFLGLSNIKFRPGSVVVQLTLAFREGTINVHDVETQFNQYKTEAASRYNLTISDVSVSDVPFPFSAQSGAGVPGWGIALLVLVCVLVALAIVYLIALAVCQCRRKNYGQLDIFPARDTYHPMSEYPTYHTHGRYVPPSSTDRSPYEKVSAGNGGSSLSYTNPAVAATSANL

B1: Humanized HC3 + LC2: heavy chain H6247, light chain L6246 (antibody)
heavy: EVQLVQSGAEVKKPGASVKVSCKASGYTFTNYWMHWVRQAPGQGLEWMGYINPSSGYTQYNQKFQGWVTMTADTSISTAYMELSRLRSDDTAVYYCSTYYGDYLFPYWGQGTLVTVSSASTKGPSVFPLAPCSRSTSESTAALGCLVKDYFPEPVTVSWNSGALTSGVHTFPAVLQSSGLYSLSSVVTVPSSNFGTQTYTCNVDHKPSNTKVDKTVERKCCVECPPCPAPPVAGPSVFLFPPKPKDTLMISRTPEVTCVVVDVSHEDPEVQFNWYVDGVEVHNAKTKPREEQFNSTFRVVSVLTVVHQDWLNGKEYKCKVSNKGLPAPIEKTISKTKGQPREPQVYTLPPSREEMTKNQVSLTCLVKGFYPSDIAVEWESNGQPENNYKTTPPMLDSDGSFFLYSKLTVDKSRWQQGNVFSCSVMHEALHNHYTQKSLSLSPG
light: DVVMTQSPLSLPVTLGQPASISCRSSQDIVYGNGNTYLEWYQQRPGQSPRLLIYKVSNRFSGVPDRFSGSGSGTDFTLKISRVEAEDVGVYYCFQGSHVPYTFGQGTKLEIKRTVAAPSVFIFPPSDEQLKSGTASVVCLLNNFYPREAKVQWKVDNALQSGNSQESVTEQDSKDSTYSLSSTLTLSKADYEKHKVYACEVTHQGLSSPVTKSFNRGEC
With B1, the “binding by ELISA” value with KCM lysate was “retained binding similar to the chimeric parental antibody”.

B2: Humanized HC3 + LC3: heavy chain H6247, light chain L6247 (antibody)
heavy: EVQLVQSGAEVKKPGASVKVSCKASGYTFTNYWMHWVRQAPGQGLEWMGYINPSSGYTQYNQKFQGWVTMTADTSISTAYMELSRLRSDDTAVYYCSTYYGDYLFPYWGQGTLVTVSSASTKGPSVFPLAPCSRSTSESTAALGCLVKDYFPEPVTVSWNSGALTSGVHTFPAVLQSSGLYSLSSVVTVPSSNFGTQTYTCNVDHKPSNTKVDKTVERKCCVECPPCPAPPVAGPSVFLFPPKPKDTLMISRTPEVTCVVVDVSHEDPEVQFNWYVDGVEVHNAKTKPREEQFNSTFRVVSVLTVVHQDWLNGKEYKCKVSNKGLPAPIEKTISKTKGQPREPQVYTLPPSREEMTKNQVSLTCLVKGFYPSDIAVEWESNGQPENNYKTTPPMLDSDGSFFLYSKLTVDKSRWQQGNVFSCSVMHEALHNHYTQKSLSLSPG
light: DIVLTQSPLSLPVTLGQPASISCRSSQDIVYGNGNTYLEWYQQRPGQSPRLLIYKVSNRFSGVPDSFSGSGSGTDFTLTISRVEAEDVGIYYCFQGSHVPYTFGEGTKLEIKRTVAAPSVFIFPPSDEQLKSGTASVVCLLNNFYPREAKVQWKVDNALQSGNSQESVTEQDSKDSTYSLSSTLTLSKADYEKHKVYACEVTHQGLSSPVTKSFNRGEC
Turning to B2, the “binding by ELISA” value with KCM lysate is reported as “retained binding similar to the chimeric parental antibody”.

B3: TAB-004-CpG ODN conjugate (conjugate)
VH: EVQLQQSGGERATPGASVKMSCKTSGYTFTNYWMHWVKQRPGQGLEWIGYINPSSGYTQYNQKFKDKATLTADKSSSTAYIQLSSLTSEDSAVYYCSTYYGDYLFPYWGQGTLVTVSA
VL: DVLMTQTPLSLPVSLGDQASISCRSSQDIVYGNGNTYLEWYLQKPGQSPKLLIYKVSNRFSGVPDRFSGSGSGTDFTLKISRVEAEDLGVYYCFQGSHVPYTFGGGTKLEIKR
As to B3, the “binding to KCM cell line” value in the data set with KCM pancreatic cell line is listed as “bound to the KCM pancreatic cell line with equal affinity”. For the same molecule, the “specific lysis of tumor cells by NK cells” value in the data set with KCM tumor cells is reported as “further enhanced specific lysis of tumor cells”. Further, the “growth of established tumor” value in the data set on KCM tumor (50 μg intratumorally at days 4, 10, and 16) is “completely stopped the growth of an established tumor leading to complete eradication”. Further, the “tumor volumes at 19 and 27 days post-treatment” value in the data set with KCM tumor (compared to control mice) is reported as “had not increased”. In addition, the “tumor regrowth after cessation of treatment” value with KCM tumor (mouse, in vivo) is listed as “did not grow back the tumors”.

B4: TAB-004-MSN (conjugate)
VH: EVQLQQSGGERATPGASVKMSCKTSGYTFTNYWMHWVKQRPGQGLEWIGYINPSSGYTQYNQKFKDKATLTADKSSSTAYIQLSSLTSEDSAVYYCSTYYGDYLFPYWGQGTLVTVSA
VL: DVLMTQTPLSLPVSLGDQASISCRSSQDIVYGNGNTYLEWYLQKPGQSPKLLIYKVSNRFSGVPDRFSGSGSGTDFTLKISRVEAEDLGVYYCFQGSHVPYTFGGGTKLEIKR
On to B4, for which the PDI in data set [1] was 0.35. Besides, in data set [1] (determined in 1 mM PBS, pH 7.4), the “Size (nm)” value is 342.0 nm and the “Zeta-potential (mV)” value was −5.6 ± 0.8 mV.
